Data: a protein production outcome set (Wang et al. 2014)

Test: label from the status in PepcDB records

Sequence | protein production
VDMDVTTAKLVVGFRGYLTLTQHSLLTYRIALKLFLSMLIGWTSKIYHTLYEDGKIDDSFDVDVEIHHNFQFVLISLDTPEPIAMSNYIRQKLATIKISKEFTNEHLNLLKKEMYGDFIQSLDSIEHLTHQFSLYLSDSDKETYFDIPKIIERLTLKDVVTIGKAFFEKADASDFTVFPK | failed
VDMLLVGAGIMSATLAVLLKELDPNLKMEVVELQESGAIESSNPWNNAGTGHAGLCELNYTPQSADGSIDIKKAVGINTMFEVSKQFWSHLVAKGTFGSPKTFINPVPHLSFVRGSEGIAYLKKRFESLTKHHAFETMVYSEDKATLAEWMPLMMPGRPADEAIAATRVEGGTDVNFGALTNQLLQHLAQQPGAQIRYNQKVTHLRRADNGWRVTVKDTRNGGDREIQARFVFLGAGGGALPLLQLSGIPEGKGFGGFPVSGQWLRCDNPEIVKQHQAKVYSQAEVGSPPMSVPHLDTRVVDGKKSLLFGPYAGFSTKFLRHGSFLDLPLSVRPGNILPMLSVARDNMDLTRYLIGQVMQSPEQRLEALRKFYPEARAEDWRLEVAGQRVQIIKKDPKKGGILQFGTELVAAHDGSIAALLGASPGASVTVSIMLGLIERCFPEQARSPEWSAKLKEIFPAREKELESDAELYRSVSSRCSEVLELTAKNDVQAPVNAE | failed
VDVENPILITSFPGIGLVGTIATAHYIMELKLESIGIVDSRLLPPVASLYEGVILPPVRVYQSADLGFVLIHSDVPIIPQAAIDMSKKIVQFAAEINARRVYSFAGVATFEDKKRVFAAATSKELLEEVKDHAEIFKTGTISGIAGSIMNECVAAKMPGIVLLGETLGFNPDPRAAASLIEAVNKIMNWNVSVEKLLKEAEMIEAQMQKLAEQARMQEERKEEFPMYG | failed
VEGRTVTYGQQNGTARTGYLAAPADVDSVRSARGGDALPGIVVIHEWWGLNDNVRAATRRLAGEGYRALAVDLYGGAVAETPDSAQALMGQAMREPSRLVENVRDGRAYLSSEADAPRTALLGWCFGGGMTYRTLAEEASAFDAAVAYYGTPDPLAGEALQALETPILAHFGTQDQAVPIDAARKFRDRMEDAGTSLAYHEYDAGHAFANPSGESYEPAAAEQAWTRTTDFLQTHL | failed
VEIRTGEFEDVAGITDIFNFYIEHTNARFEEFPFTLENREEWFSQFSRTTKYQIYVAVENGVLQGFACSQKYRAIPAFDDTVEVSVYLAQEAKGKGLGSKLYTQLFSSIRAYGVHRILSGVALPNDASVALHKRFGFREVGIFNEYAKKHGQYISSVWLEKALNVESAL | not failed
VEPSEENSKDCVVCQNGTVNWVLLPCRHTCLCDGCVKYFQQCPMCRQFVQESFAL | not failed
VGSVLEIKDPENLKNLGSLIGEEIAKLHQALNSVNSNNELVKRELYKLVYEWALPNLEKNEHVDQDVVRTMNQIHSDFKKTITSLRKQIIHRDMHLSNVIFKDNEFQGFIDFELLERNVRVFDLCYCCTSILSELHSDEELRGKWQHIISKIFEGYNKQSILTREELQAIWYVMLSIQVIFITYFVQLPDLLKLNEEMFF | failed
VHCLFVGAGSIAAEYAAELADSPLSLAGVCDLEEDRATALAAAHDCPAFTDLDTALSAVDAPLVVNLTNHAAHAPVTRTALEAGRHVYSQKPLALDEAAAAELLALAQDRNLALGCAPGTPDAPSQRRAGQMLADGRMGPVQLGYAHAHVGRV | failed
VIKFSSEDCGTCHKMSHYDANVAEELGAEFVSVMLQDTEAYRKYRKVLLKQYPNKEGMGWPTYLLVTDPEGDFTIHGELKGGMPKGEFRTRLGALLA | failed
VKNGNDTRMTLLNNWESTYFDFDENKLIGLMDEATKLGVDMFLLDDGWFANKYPRSSDHQGLGDWEETADKLPNGVGRLVEEAQKKGIKFGIWIEPEMVNPKSELYEKHKDWVIHLPNRDEYYFRNQMVLDLSNPKVQDHVFGVVDNLMTKYPGIAFFKWDCNSPITNIYSVYLKDKQSHLYVDYVRGLYKVLDRIKAKYPNLPMMLCAGGGGRSDYEALKYFTEFWPSDNTDPIERLFIQWGYSQIFPSKTLCAHVTTWNRGTSIKFRTDVAMMCKLGFDIKLEDMNQNEHLYCDQAVKNYNRLKPVILEG | failed
VKSKAKKTVDAHSDEYKIRRERNNIAVRKSRDKAKMRNLETQHKVLELTAENERLQKKVEQLSRELSTLRNLFKQLPE | not failed
VKTPGTRYVTHKQLDEKLKNFVTKTEFKEFQTVVMESFAVQNQNIDAQGEQIKELQVEQKAQGKTLQLILEALQGINKRLDNLES | not failed
VKTWPAPTAPTPVRATVTVPGSKSQTNRALVLAALAAAQGRGASTISGALRSRDTELMLDALQTLGLRVDGVGSELTVSGRIEPGPGARVDCGLAGTVLRFVPPLAALGSVPVTFDGDQQARGRPIAPLLDALRELGVAVDGTGLPFRVRGNGSLAGGTVAIDASASSQFVSGLLLSAASFTDGLTVQHTGSSLPSAPHIAMTAAMLRQAGVDIDDSTPNRWQVRPGPVAARRWDIEPDLTNAVAFLSAAVVSGGTVRITGWPRVSVQPADHILAILRQLNAVVIHADSSLEVRGPTGYDGFDVDLRAVGELTPSVAALAALASPGSVSRLSGIAHLRGHETDRLAALSTEINRLGGTCRETPDGLVITATPLRPGIWRAYADHRMAMAGAIIGLRVAGVEVDDIAATTKTLPEFPRLWAEMVGPGQGWGYPQPRSGQRARRATGQGSGG | not failed
VLASILLSQAAYESNYGSSLLSVKYHNIYSLPARPGQEHIYLKDNVYSKGKWQYQKVDFAVFRDWSSSMSSYLEELRQGRWGESTYKEVAGTTSYKVAAEKLQAAGFNSDPDYTKHLISIIETYNL | failed
VPLEARMKQFKDMLLERGVSAFSTWEKELHKIVFDPRYLLLNPKERKQVFDQYV | failed
VPPDTLHSLPKSQVKRQEVISELLVTEAAHVRMLRVLHDLFFQPMAECLFFPLEELQNIFPSLDELIEVHSLFLDRLMKRRQESGYLIEEIGDVLLARFDGAEGSWFQKISSRFCSRQSFALEQLKAKQRKDPRFCAFVQEAESRPRCRRLQLKDMIPTEMQRLTKYPLLLQSIGQNTEEPTEREKVELAAECCREILHHVNQAVRDMEDLLRLKDYQRRLDLSHLRQSSDPMLSEFKNLDITKKKLVHEGPLTWRVTKDKAVEVHV | failed
VSERKAMQKRLTRRERRFRMMFEGHSAPMLLIDEETGAIEQANAAAVEFYGYERDILMSMSIQDINQLPAEEVARERREAAEDGDEFLFEHELASGAVRTVRVLSAPIPNLDRAGTLLFSVIHD | failed
VSGFQRLQKPVVSQPDFRRQPVSETMQVYLKQAADPGRDVGLYWMATDFENRRFPGKVSPSGFQKLYRQWRNQTGWDAYVQSCRAIWNDVKYFPIPQSLDDTEDKISYVDSWMFERNYGGKRGHEGTDIMAEKNTPGYYPVVSMTDGVVTEKGWLEKGGWRIGITAPTGAYFYYAHLDSYAELEKGDPVKAGDLLGYMGDSGYGEEGTTGEFPVHLHLGIYLKEGTEEISVNPYPVLRYAENARIKCVYSR | not failed
VSVGTHPTFENSPSGTVLTSPPDGSAVDRATDAARRVVDALLRTDRGNANLERVAEELNSIAGHLEEHAPAVAERLIDMWNGEGVTRHDPVTGPENALAPPVVLEGLSDGSVRGTVTLTIPYQGPPGHVHGGVSALLLDHVLGVANAWGGKAGMTAQLSTRYHRPTPLFEPLTLTGKLMSVDGRKITTAGDIRTADGQVCVSVEGLFVDKTVPRPR | not failed
VTDILREIGMIARALDSISNIEFKELSLTRGQYLYLVRVCENPGIIQEKIAELIKVDRTTAARAIKRLEEQGFIYRQEDASNKKIKRIYATEKGKNVYPIIVRENQHSNQVALQGLSEVEISQLADYLVRMRKNVSEDWEFVKKGNTRNY | not failed
VTIDNIQKTVAEYYKIKVADLLSKRRSRSVARPRQXAXALAKELTNHSLPEIGDAFGGRDHTTVLHACRKIEQLREESHDIKEDFSNLIRTLSS | not failed
VTRRIAICAPSTPFTREDSARVIALAAAEFPDLSLSFHEQCFASEGHFAGSDALRLSAFLECANDDAFEAVWFVRGGYGANRIAEDALARLGRAASAKQYLGYSDAGTLLAALYAHRIGRSVHAPMPVDIRRPEGESAVRRTLGWLAGAREGLEPTLGAGAPAVAFNLMTLAMLCGTRLLPDLSGHVVMIEEVAEHHYAVDRLLFHVTSCLADAGIAGLRLGRVSDVPENDRPFGCSVEEMARHWCHRAGIAFLGTADIGHDVDNRIVPFGLA | not failed
